This series can be described thus: amyloid nucleation score (Sup35N fusion, yeast selection) (log enrichment); library NNK3; higher = more nucleation; inactive = no reads after selection. The method, boiled down: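 Sup35N was fused to peptides of 20 random codons and expressed in psi-negative yeast, which were induced with 100 μM copper sulfate for 24 hours and then grown on medium lacking adenine and uracil for 7 days at 30°C. Plasmid inserts from input and output were sequenced on Illumina. The nucleation score is the DiMSum log enrichment of output over input reads, centred on the mode score of non-aggregating sequences. Sequences with under 100 input reads were left out, and random libraries had three technical output replicates.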

± gives the uncertainty stated by the source.

For FPGCSRENLTVGLSVTRTEG, the amyloid nucleation score entry was “inactive”.
Consider SAVYIDA, for which the amyloid nucleation score result is “inactive”.
Take DIVYQARCA: the amyloid nucleation score entry is “inactive”.
Take LSSFRPSYEYYLRDISAMSW: the amyloid nucleation score result is “inactive”.
As for NVRNLGRSFNWMSSCGNLCD, the amyloid nucleation score result is “inactive”.
As to FLVNDYFV, the amyloid nucleation score result was “inactive”.
Turning to FKPWLYFGRPMAQLRDDCQV, the amyloid nucleation score result is “inactive”.
For the substance FFTRSNVLRSVCFSSPITLW, the amyloid nucleation score result was “inactive”.
For the substance WPYGIVTLRTWANYLGLFTL, the amyloid nucleation score is -0.796 ± 1.1.
For the substance CFLVTVSSGTASMQVLGRSG, the amyloid nucleation score came to 1.23 ± 0.14.
As for HQYWEGCSMLYL, the amyloid nucleation score result is “inactive”.
For the substance RSAPCC, the amyloid nucleation score result is “inactive”.
For the substance FLLVLWSVFLTGT, the amyloid nucleation score result was “inactive”.
Regarding SPQVLDRWDQFKWKFVFRGS, the amyloid nucleation score was 0.584 ± 0.13.
In turn, GGSFKVDNPKVTRAWISFFS had an amyloid nucleation score of 0.802 ± 0.13.
DALVSYCWLSNLDTAGKMET: the amyloid nucleation score entry is “inactive”.
With EGYACIVYCLGPINLLMWCT, the amyloid nucleation score result is “inactive”.
Take MMCFTLS: the amyloid nucleation score result was “inactive”.
Under GKARQSLHIGSSLLTFMA stands “inactive”; under VCTKWGQYFCPYPVLCGWVR, “inactive”.
Take CFDCTVF: the amyloid nucleation score result was “inactive”.
Regarding LPYTVQAVVIRVDKSYVSSV, the amyloid nucleation score entry was “inactive”.
Under SMKGNSWF stands “inactive”; under DGDIVDSG, -0.616 ± 0.8; under NLSTFQIYDR, “inactive”.
On to VSRVSLKRRYALM, for which the amyloid nucleation score was -1.13 ± 2.5.
Turning to TYLGDSFSILHLIQGDWFIE, the amyloid nucleation score result was “inactive”.
The result for YYVVVQADVGNI reads “inactive”; that for KLNAVYTRSAGWLSHQEM, “inactive”; that for YMEAC, “inactive”.
As to LFTWKCDLGSRRAKGSGLGS, the amyloid nucleation score stood at 1.42 ± 0.13.
Under SFKKPRPNYLPVFLVYLCNS stands “inactive”; under VYYYKMTGKVYMSLYMGKLL, “inactive”; under LSHAG, “inactive”.
For the substance GHQNRTP, the amyloid nucleation score entry is “inactive”.
With NGWLVMLYIKLTGFFP, the amyloid nucleation score entry was “inactive”.
LPHNIVLAKKTLKV: the amyloid nucleation score result is “inactive”.
Under FCTPI stands “inactive”.
Take VNNNYEVCNDRDSCPLINFC: the amyloid nucleation score result is “inactive”.
Turning to NLSRRIWTHYHTQVNLIGID, the amyloid nucleation score entry was “inactive”.
On to NPVLWVGRAF, for which the amyloid nucleation score result is “inactive”.
The result for MELNLNKSSAYYKSVHFSVT reads -0.053 ± 0.3; that for HKCGQDFYR, “inactive”; that for SQSLPFVCA, “inactive”.
The substance SKCIKLFNFNVSCFQTSSLL showed an amyloid nucleation score of 2.29 ± 0.092.
The result for FKTCPKCSSSCCIFICPCSV reads 0.753 ± 0.25; that for LSGKTMVFFPKSNMRNNTRS, “inactive”.
On to FVYQYYV, for which the amyloid nucleation score result was “inactive”.
Turning to MRLNGFLRRKGRVSNMWHTG, the amyloid nucleation score entry was “inactive”.
As to QERTKSFWPLLLALALPSDQ, the amyloid nucleation score result was “inactive”.
With PATMFI, the amyloid nucleation score result is “inactive”.
Consider DLGRNYIVNGIL, for which the amyloid nucleation score result was “inactive”.
On to DPLLLNRFGNCMLTLWVIVR, for which the amyloid nucleation score result was “inactive”.
Regarding DKTCMVKPT, the amyloid nucleation score result was “inactive”.
SWGIEDSVSYEMETDVVSNW: the amyloid nucleation score result was “inactive”.
Consider GYDVRL, for which the amyloid nucleation score result is “inactive”.
As for TDVYHQNAQYHRVYNLQGRV, the amyloid nucleation score result is “inactive”.
As for TASWVLFVAVVCICLTLFSY, the amyloid nucleation score stood at 0.85 ± 0.3.
FHNFVRHIYAGGNRP: the amyloid nucleation score entry was “inactive”.
FGRSVDFMVIHFCTTY: the amyloid nucleation score result is “inactive”.
With TMLDLGDKYVMLFEQVDSFF, the amyloid nucleation score entry is “inactive”.
As to LHGCTEITKGNYLPNNAVD, the amyloid nucleation score result is “inactive”.
For YVYWREFGACMGSQQWVVRV, the amyloid nucleation score result is “inactive”.
Under EHNAKEHITLGLTSWPNRLG stands “inactive”; under PRFMKVRRWYSNLM, “inactive”; under THYEVWGLT, “inactive”.
On to LCGLSDSYCRA, for which the amyloid nucleation score result is “inactive”.
For VQLLDRNEIFGVWGSIELLQ, the amyloid nucleation score result was “inactive”.
Turning to RHSFMRFRLSNWV, the amyloid nucleation score entry was “inactive”.
The result for GYCNESTVWYDS reads “inactive”; that for RMPYKMQFFCNLWLSVYSTL, “inactive”.
On to TGVVMCLGIEMINDYIPVLN, for which the amyloid nucleation score entry was “inactive”.
For ILSRRLRLQLLFDFYNCLCG, the amyloid nucleation score entry is “inactive”.
Consider LAPGRLCLMGIKRTTSWWSS, for which the amyloid nucleation score result was “inactive”.
For the substance TRFLFCFNWIWGEPVACEYE, the amyloid nucleation score worked out at 2.39 ± 0.07.
Under VSGLFDVTLRGWYG stands “inactive”; under NGSVSVKSLIFLDDCCSSWA, “inactive”; under SVTFANTSRHYPLADLSTPT, 0.162 ± 0.27.
For the substance NALYTSLYRLNLGFWAQMLP, the amyloid nucleation score entry was “inactive”.
For the substance VDIVRVSCEALSLATDCQFL, the amyloid nucleation score entry is “inactive”.
Take AGKHFAHSGLFLVCNYTSRT: the amyloid nucleation score result is “inactive”.
NYDKCSDPRRRRRLFFHLYD: the amyloid nucleation score entry was “inactive”.
As for KRLSCNFRSRSKSSGWPTLV, the amyloid nucleation score result is “inactive”.
Regarding NDTWCVLFRTPKLLCMSVFT, the amyloid nucleation score result was “inactive”.
Turning to CVFDSCSSLYKDMYTLCHVS, the amyloid nucleation score result was “inactive”.
The result for FRNSGTNACIL reads “inactive”; that for SRGEKNSNFTWTNDFDFFRV, “inactive”.
As for FTSVMKNNV, the amyloid nucleation score entry is “inactive”.
Under IPFNPALLVPRGFGSFIIPA stands “inactive”; under SSLAGMQEDC, “inactive”; under RDPDGRIYMYGLDVIQYVTN, “inactive”.
For the substance YGLVGQFSTVGTKQALLLGT, the amyloid nucleation score entry is “inactive”.
For the substance RFISEYCMFENKEMVEPSFG, the amyloid nucleation score result is “inactive”.
For VLACSHWLMLSRTKYMMRIV, the amyloid nucleation score result was “inactive”.
Turning to GKPWGTGSLVLWYLYDEDCA, the amyloid nucleation score entry is “inactive”.
The result for AYMKGVWFRDEKDISFLIWI reads “inactive”; that for MKVEVYPSTVFMRYRVNWVI, “inactive”.

Values taken from the supplement of paper PMC12042874.
